Test results taken from US20250304650A1.

Molecular target: feline FcRn (FCN-F82W3, Acrobiosystems) (feline)
Assay: SPR Carterra, IgG coupled, pH 6.0

Binder | Kd [nM] | koff [s⁻¹] | kon [M⁻¹ s⁻¹]
anti-NGF feline IgG1a, Fc variant L309Y (antibody, part only; not given: anti-NGF variable domains, light chain, not shown: another chain or arm of the molecule; small tags and cut ends) Fc: PPEMLGGPSIFIFPPKPKDTLSISRTPEVTCLVVDLGPDDSDVQITWFVDNTQVYTAKTSPREEQFNSTYRVVSVLPIYHQDWLKGKEFKCKVNSKSLPSPIERTISKAKGQPHEPQVYVLPPAQEELSRNKVSVTCLIKSFHPPDIAVEWEITGQPEPENNYRTTPPQLDSDGTYFVYSKLSVDRSHWQRGNTYTCSVSHEALHSHHTQKSLTQSPGK | 196 | 0.118 | 600000
anti-NGF feline IgG1a, Fc variant Q347L (antibody, part only; not given: Anti-NGF variable domains, not shown: another chain or arm of the molecule; small tags and cut ends) Fc: PPEMLGGPSIFIFPPKPKDTLSISRTPEVTCLVVDLGPDDSDVQITWFVDNTQVYTAKTSPREEQFNSTYRVVSVLPILHQDWLKGKEFKCKVNSKSLPSPIERTISKAKGQPHEPLVYVLPPAQEELSRNKVSVTCLIKSFHPPDIAVEWEITGQPEPENNYRTTPPQLDSDGTYFVYSKLSVDRSHWQRGNTYTCSVSHEALHSHHTQKSLTQSPGK | 157 | 0.0853 | 544000
anti-NGF feline IgG1a, Fc variant I377Y (antibody, part only; not given: anti-NGF variable domains, not shown: another chain or arm of the molecule; small tags and cut ends) Fc: PPEMLGGPSIFIFPPKPKDTLSISRTPEVTCLVVDLGPDDSDVQITWFVDNTQVYTAKTSPREEQFNSTYRVVSVLPILHQDWLKGKEFKCKVNSKSLPSPIERTISKAKGQPHEPQVYVLPPAQEELSRNKVSVTCLIKSFHPPDYAVEWEITGQPEPENNYRTTPPQLDSDGTYFVYSKLSVDRSHWQRGNTYTCSVSHEALHSHHTQKSLTQSPGK | 61.4 | 0.0514 | 837000
anti-NGF feline IgG1a, Fc variant S428H (antibody, part only; not given: anti-NGF variable domains, light chain, not shown: another chain or arm of the molecule; small tags and cut ends) Fc: PPEMLGGPSIFIFPPKPKDTLSISRTPEVTCLVVDLGPDDSDVQITWFVDNTQVYTAKTSPREEQFNSTYRVVSVLPILHQDWLKGKEFKCKVNSKSLPSPIERTISKAKGQPHEPQVYVLPPAQEELSRNKVSVTCLIKSFHPPDIAVEWEITGQPEPENNYRTTPPQLDSDGTYFVYSKLSVDRSHWQRGNTYTCSVHHEALHSHHTQKSLTQSPGK | 159 | 0.0618 | 389000
anti-NGF feline IgG1a, Fc variant E380T (antibody, part only; not given: anti-NGF variable domains, not shown: another chain or arm of the molecule; small tags and cut ends) Fc: PPEMLGGPSIFIFPPKPKDTLSISRTPEVTCLVVDLGPDDSDVQITWFVDNTQVYTAKTSPREEQFNSTYRVVSVLPILHQDWLKGKEFKCKVNSKSLPSPIERTISKAKGQPHEPQVYVLPPAQEELSRNKVSVTCLIKSFHPPDIAVTWEITGQPEPENNYRTTPPQLDSDGTYFVYSKLSVDRSHWQRGNTYTCSVSHEALHSHHTQKSLTQSPGK | 116 | 0.062 | 533000
anti-NGF feline IgG1a, Fc variant Q311L (antibody, part only; not given: anti-NGF variable domains, light chain, not shown: another chain or arm of the molecule; small tags and cut ends) Fc: PPEMLGGPSIFIFPPKPKDTLSISRTPEVTCLVVDLGPDDSDVQITWFVDNTQVYTAKTSPREEQFNSTYRVVSVLPILHLDWLKGKEFKCKVNSKSLPSPIERTISKAKGQPHEPQVYVLPPAQEELSRNKVSVTCLIKSFHPPDIAVEWEITGQPEPENNYRTTPPQLDSDGTYFVYSKLSVDRSHWQRGNTYTCSVSHEALHSHHTQKSLTQSPGK | 88.2 | 0.0499 | 565000
anti-NGF feline IgG1a, Fc variant T286E, S428H (antibody, part only; not given: Anti-NGF variable domains, not shown: another chain or arm of the molecule; small tags and cut ends) Fc: PPEMLGGPSIFIFPPKPKDTLSISRTPEVTCLVVDLGPDDSDVQITWFVDNTQVYEAKTSPREEQFNSTYRVVSVLPILHQDWLKGKEFKCKVNSKSLPSPIERTISKAKGQPHEPQVYVLPPAQEELSRNKVSVTCLIKSFHPPDIAVEWEITGQPEPENNYRTTPPQLDSDGTYFVYSKLSVDRSHWQRGNTYTCSVHHEALHSHHTQKSLTQSPGK | 47.3 | 0.0283 | 598000
anti-NGF feline IgG1a, Fc variant R334D, R301L (antibody, part only; not given: anti-NGF variable domains, light chain, not shown: another chain or arm of the molecule; small tags and cut ends) Fc: PPEMLGGPSIFIFPPKPKDTLSISRTPEVTCLVVDLGPDDSDVQITWFVDNTQVYTAKTSPREEQFNSTYLVVSVLPILHQDWLKGKEFKCKVNSKSLPSPIEDTISKAKGQPHEPQVYVLPPAQEELSRNKVSVTCLIKSFHPPDIAVEWEITGQPEPENNYRTTPPQLDSDGTYFVYSKLSVDRSHWQRGNTYTCSVSHEALHSHHTQKSLTQSPGK | 90.7 | 0.0417 | 460000
anti-NGF feline IgG1a, Fc variant R334D, S428R (antibody, part only; not given: anti-NGF variable domains, light chain, not shown: another chain or arm of the molecule; small tags and cut ends) Fc: PPEMLGGPSIFIFPPKPKDTLSISRTPEVTCLVVDLGPDDSDVQITWFVDNTQVYTAKTSPREEQFNSTYRVVSVLPILHQDWLKGKEFKCKVNSKSLPSPIEDTISKAKGQPHEPQVYVLPPAQEELSRNKVSVTCLIKSFHPPDIAVEWEITGQPEPENNYRTTPPQLDSDGTYFVYSKLSVDRSHWQRGNTYTCSVRHEALHSHHTQKSLTQSPGK | 81.7 | 0.0493 | 603000
anti-NGF feline IgG1a, Fc variant K326D (antibody, part only; not given: anti-NGF variable domains, not shown: another chain or arm of the molecule; small tags and cut ends) Fc: PPEMLGGPSIFIFPPKPKDTLSISRTPEVTCLVVDLGPDDSDVQITWFVDNTQVYTAKTSPREEQFNSTYRVVSVLPILHQDWLKGKEFKCKVNSDSLPSPIERTISKAKGQPHEPQVYVLPPAQEELSRNKVSVTCLIKSFHPPDIAVEWEITGQPEPENNYRTTPPQLDSDGTYFVYSKLSVDRSHWQRGNTYTCSVSHEALHSHHTQKSLTQSPGK | 136 | 0.0584 | 428000
anti-NGF feline IgG1a, Fc variant R334D, T437L (antibody, part only; not given: anti-NGF variable domains, light chain, not shown: another chain or arm of the molecule; small tags and cut ends) Fc: PPEMLGGPSIFIFPPKPKDTLSISRTPEVTCLVVDLGPDDSDVQITWFVDNTQVYTAKTSPREEQFNSTYRVVSVLPILHQDWLKGKEFKCKVNSKSLPSPIEDTISKAKGQPHEPQVYVLPPAQEELSRNKVSVTCLIKSFHPPDIAVEWEITGQPEPENNYRTTPPQLDSDGTYFVYSKLSVDRSHWQRGNTYTCSVSHEALHSHHLQKSLTQSPGK | 95.7 | 0.0437 | 457000

The remaining binders from weak to strong by Kd, led by results:

Kd [nM] | koff [s⁻¹] | kon [M⁻¹ s⁻¹] | Binder
188 | 0.0944 | 502000 | anti-NGF feline IgG1a, Fc variant N389c-R (antibody, part only; not given: anti-NGF variable domains, not shown: another chain or arm of the molecule; small tags and cut ends) Fc: PPEMLGGPSIFIFPPKPKDTLSISRTPEVTCLVVDLGPDDSDVQITWFVDNTQVYTAKTSPREEQFNSTYRVVSVLPILHQDWLKGKEFKCKVNSKSLPSPIERTISKAKGQPHEPQVYVLPPAQEELSRNKVSVTCLIKSFHPPDIAVEWEITGQPEPERNYRTTPPQLDSDGTYFVYSKLSVDRSHWQRGNTYTCSVSHEALHSHHTQKSLTQSPGK
171 | 0.0602 | 352000 | anti-NGF feline IgG1a, Fc variant S426H (antibody, part only; not given: anti-NGF variable domains, not shown: another chain or arm of the molecule; small tags and cut ends) Fc: PPEMLGGPSIFIFPPKPKDTLSISRTPEVTCLVVDLGPDDSDVQITWFVDNTQVYTAKTSPREEQFNSTYRVVSVLPILHQDWLKGKEFKCKVNSKSLPSPIERTISKAKGQPHEPQVYVLPPAQEELSRNKVSVTCLIKSFHPPDIAVEWEITGQPEPENNYRTTPPQLDSDGTYFVYSKLSVDRSHWQRGNTYTCHVSHEALHSHHTQKSLTQSPGK
149 | 0.0526 | 352000 | anti-NGF feline IgG1a, Fc variant S428H, T289H (antibody, part only; not given: anti-NGF variable domains, light chain, not shown: another chain or arm of the molecule; small tags and cut ends) Fc: PPEMLGGPSIFIFPPKPKDTLSISRTPEVTCLVVDLGPDDSDVQITWFVDNTQVYTAKHSPREEQFNSTYRVVSVLPILHQDWLKGKEFKCKVNSKSLPSPIERTISKAKGQPHEPQVYVLPPAQEELSRNKVSVTCLIKSFHPPDIAVEWEITGQPEPENNYRTTPPQLDSDGTYFVYSKLSVDRSHWQRGNTYTCSVHHEALHSHHTQKSLTQSPGK
133 | 0.0561 | 423000 | anti-NGF feline IgG1a, Fc variant R334D (antibody, part only; not given: anti-NGF variable domains, light chain, not shown: another chain or arm of the molecule; small tags and cut ends) Fc: PPEMLGGPSIFIFPPKPKDTLSISRTPEVTCLVVDLGPDDSDVQITWFVDNTQVYTAKTSPREEQFNSTYRVVSVLPILHQDWLKGKEFKCKVNSKSLPSPIEDTISKAKGQPHEPQVYVLPPAQEELSRNKVSVTCLIKSFHPPDIAVEWEITGQPEPENNYRTTPPQLDSDGTYFVYSKLSVDRSHWQRGNTYTCSVSHEALHSHHTQKSLTQSPGK
115 | 0.0622 | 542000 | anti-NGF feline IgG1a, Fc variant S426L, T289H (antibody, part only; not given: Anti-NGF variable domains, not shown: another chain or arm of the molecule; small tags and cut ends) Fc: PPEMLGGPSIFIFPPKPKDTLSISRTPEVTCLVVDLGPDDSDVQITWFVDNTQVYTAKHSPREEQFNSTYRVVSVLPILHQDWLKGKEFKCKVNSKSLPSPIERTISKAKGQPHEPQVYVLPPAQEELSRNKVSVTCLIKSFHPPDIAVEWEITGQPEPENNYRTTPPQLDSDGTYFVYSKLSVDRSHWQRGNTYTCLVSHEALHSHHTQKSLTQSPGK
100 | 0.0445 | 445000 | anti-NGF feline IgG1a, Fc variant S426L, S428H (antibody, part only; not given: anti-NGF variable domains, light chain, not shown: another chain or arm of the molecule; small tags and cut ends) Fc: PPEMLGGPSIFIFPPKPKDTLSISRTPEVTCLVVDLGPDDSDVQITWFVDNTQVYTAKTSPREEQFNSTYRVVSVLPILHQDWLKGKEFKCKVNSKSLPSPIERTISKAKGQPHEPQVYVLPPAQEELSRNKVSVTCLIKSFHPPDIAVEWEITGQPEPENNYRTTPPQLDSDGTYFVYSKLSVDRSHWQRGNTYTCLVHHEALHSHHTQKSLTQSPGK
80.4 | 0.0505 | 629000 | anti-NGF feline IgG1a, Fc variant Q311V (antibody, part only; not given: anti-NGF variable domains, light chain, not shown: another chain or arm of the molecule; small tags and cut ends) Fc: PPEMLGGPSIFIFPPKPKDTLSISRTPEVTCLVVDLGPDDSDVQITWFVDNTQVYTAKTSPREEQFNSTYRVVSVLPILHVDWLKGKEFKCKVNSKSLPSPIERTISKAKGQPHEPQVYVLPPAQEELSRNKVSVTCLIKSFHPPDIAVEWEITGQPEPENNYRTTPPQLDSDGTYFVYSKLSVDRSHWQRGNTYTCSVSHEALHSHHTQKSLTQSPGK
48.1 | 0.0265 | 552000 | anti-NGF feline IgG1a, Fc variant S428Y, S254R (antibody, part only; not given: Anti-NGF variable domains, not shown: another chain or arm of the molecule; small tags and cut ends) Fc: PPEMLGGPSIFIFPPKPKDTLSIRRTPEVTCLVVDLGPDDSDVQITWFVDNTQVYTAKTSPREEQFNSTYRVVSVLPILHQDWLKGKEFKCKVNSKSLPSPIERTISKAKGQPHEPQVYVLPPAQEELSRNKVSVTCLIKSFHPPDIAVEWEITGQPEPENNYRTTPPQLDSDGTYFVYSKLSVDRSHWQRGNTYTCSVYHEALHSHHTQKSLTQSPGK
9.8 | 0.0095 | 974000 | anti-NGF feline IgG1a, Fc variant S252Y (antibody, part only; not given: Anti-NGF variable domains, not shown: another chain or arm of the molecule; small tags and cut ends) Fc: PPEMLGGPSIFIFPPKPKDTLYISRTPEVTCLVVDLGPDDSDVQITWFVDNTQVYTAKTSPREEQFNSTYRVVSVLPILHQDWLKGKEFKCKVNSKSLPSPIERTISKAKGQPHEPQVYVLPPAQEELSRNKVSVTCLIKSFHPPDIAVEWEITGQPEPENNYRTTPPQLDSDGTYFVYSKLSVDRSHWQRGNTYTCSVSHEALHSHHTQKSLTQSPGK
